We go through one molecule from publication PMC8409056.

Data set [1] deals with SARS-CoV-2 spike RBD-Fc fusion (SARS-CoV-2, UniProt P0DTC2 319-541). The data set is described as follows: ELISA on aptamer-coated gold slide. A general note: ELISA stands for enzyme-linked immunosorbent assay.
The target of data set [2] is SARS-CoV-2 spike S1 subunit (SARS-CoV-2, UniProt P0DTC2 16-685).

B1: CoV-2-RBD-4C aptamer (Aptamer-4C) (structured_DNA)
DNA: ATCCAGAGTGACGCAGCATTTCATCGGGTCCAAAAGGGGCTGCTCGGGATTGCGGATATGGACACGT
modifications: 5'-thiol, immobilized on gold
With B1, the binding result in data set [1] and in data set [2] was “binds” in each case.
